The target of experiment [1] is PTP1BS187C lite / C3-SLF conjugate (UniProt P18031). Description: X-ray crystal structure FKBP12-C3SLF-PTP1BS187C.
For experiment [2], the target named is MCL1S245C lite / C3-SLF conjugate (UniProt Q07820). Put plainly: X-ray crystal structure MCL1S245C/C3SLF/FKBP52, 3.0 Å.
In experiment [3] the target is T1, FKBP12-Compound 2 binary complex (UniProt P62942 1-108).
T1 construct: FKBP12 (10 µM) pre-incubated with 20 µM of the non-covalent ligand Compound 2 in the ITC cell
T1 sequence (P62942 whole entry, one chain of several): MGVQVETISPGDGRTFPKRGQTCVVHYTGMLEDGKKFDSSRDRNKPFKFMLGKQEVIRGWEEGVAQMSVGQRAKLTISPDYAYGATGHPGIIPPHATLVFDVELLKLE
Put plainly: ITC, 298 K; FKBP12 + Compound 2 in cell, CEP25011.4 in syringe. The method, then: (§1) CEP250 protein stocks are diluted to 50 μM in assay buffer and supplemented with 20 μM compound (1% DMSO final) before being filled into the injection syringe. A control experiment in the absence of compound is also run to determine the heat associated with operational artifacts and the dilution of titrant as it is injected from the syringe into the reaction cell.
(§2) Data Fitting: Data were fitted with the Origin ITC200 software according to the following procedure: [0473] 1) Read raw data [0474] 2) In “mRawITC”: adjust integration peaks and baseline, integrate all peaks [0475] 3) In “Delta H”—data control: remove bad data (injection #1 and other artifacts), subtract straight line (background subtraction) [0476] 4) In “Delta H”—model fitting: select one set of sites model, perform fitting with Levenberg-Marquardt algorithm until Chi Square is not reduced further, finish with “done” (parameters N, Kₐ and ΔH are calculated based on fitting)
For orientation: Isothermal titration calorimetry measures the heat released or taken up as one component is titrated into another.

The target in experiment [4] is T2, FKBP12-Compound 1 binary complex (UniProt P62942 1-108).
T2 construct: FKBP12 (10 µM) pre-incubated with 20 µM of the non-covalent ligand Compound 1 in the ITC cell
T2 sequence (P62942 whole entry, one chain of several): as above
Put plainly: ITC, 298 K; FKBP12 + Compound 1b in cell, CEP25011.4 in syringe. How it is done: as §1, §2

Experiment [5] addresses T3, 12xHIS tagged FKBP12 / Compound 1 binary complex (UniProt P62942 1-108, limits assumed).
T3 construct: Immobilized on an NTA chip, with 1 µM Compound 1 in all buffers; also called immobilized FKBP12-Compound 1 binary complex; not shown: 12xHIS tag
Description: SPR (Biacore X100), 12xHIS FKBP12 on NTA chip with 1 µM Compound 1, CEP250 as analyte, 1:1 model, 25 °C. The method, then: Experimental Protocol: Experiments are performed at 25° C. […] The second flow cell is not activated as a reference for non-specific interaction of the analyte to the sensor chip. […] The surface is regenerated between analyte injections with 350 mM EDTA.
Data Fitting: The BiaEvaluation software program is used for data fitting. All data is reference subtracted against both the reference flow cell and a buffer injection. For kinetic analyses, data is locally fit to a 1:1 interaction model.
(In general: SPR reads the build-up and loss of mass on a sensor chip optically.)

The source of these data is patent US20210405060A1 (published 2021).

Sequence of MCL1S245C lite / C3-SLF conjugate (Q07820 other isoform, or with tags, fused parts or gaps with the stated changes limits assumed): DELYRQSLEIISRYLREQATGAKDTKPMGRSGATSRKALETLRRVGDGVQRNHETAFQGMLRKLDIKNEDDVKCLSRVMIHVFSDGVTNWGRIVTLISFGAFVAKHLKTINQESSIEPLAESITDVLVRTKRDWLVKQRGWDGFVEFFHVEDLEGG
Sequence of PTP1BS187C lite / C3-SLF conjugate (P18031 other isoform, or with tags, fused parts or gaps limits assumed, change not shown): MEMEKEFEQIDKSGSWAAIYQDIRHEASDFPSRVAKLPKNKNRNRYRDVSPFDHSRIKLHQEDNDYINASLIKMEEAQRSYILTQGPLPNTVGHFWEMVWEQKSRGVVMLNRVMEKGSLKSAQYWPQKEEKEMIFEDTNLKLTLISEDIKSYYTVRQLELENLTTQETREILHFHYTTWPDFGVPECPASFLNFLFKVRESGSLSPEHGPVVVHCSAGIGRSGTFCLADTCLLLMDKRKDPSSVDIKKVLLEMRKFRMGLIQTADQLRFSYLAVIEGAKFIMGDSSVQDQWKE
T3 sequence (P62942 whole entry, one chain of several): as the sequence (P62942 whole entry, one chain of several) above

In experiment [1], “FKBP12 (in-house) (from UniProt P62942 1-108) (enzyme)” returned a buried surface area of PTP1BS187C of 427 Å^2 and a total buried surface area of the complex of 1040 Å^2.

B1: FKBP52 (in-house, residues 1-140) (enzyme, UniProt Q02790 1-140, looked up)
chain: MTAEEMKATESGAQSAPLPMEGVDISPKQDEGVLKVIKREGTGTEMPMIGDRVFVHYTGWLLDGTKFDSSLDRKDKFSFDLGKGEVIKAWDIAIATMKVGEVCHITCKPEYAYGSAGSPPKIPPNATLVFEVELFEFKGE
In experiment [2], B1 yielded a buried surface area contributed by FKBP52 of 804 Å^2, a share of buried surface area contributed by FKBP52 of 60% and a total buried surface area of the complex of 1410 Å^2.

B2: CEP25011.4 (residues 2134-2231) (other, UniProt Q9BV73 2134-2231, looked up)
chain: MEEQSLKLDSLEPRLQRELERLQAALRQTEAREIEWREKAQDLALSLAQTKASVSSLQEVAMFLQASVLERDSEQQRLQDELELTRRALEKERLHSPG
notes: range 2134-2231
B2: the Kd (commonly a measure of binding affinity in units of concentration) amounted to 80 nM in experiment [3], 70 nM in experiment [4] and 5.4 nM in experiment [5].
